Assay results taken from patent publication US20190211097A1.

Target: human CD32a (FcgammaRIIa) on washed human platelets (human) (UniProt P12318)
Experiment: cell-based or functional assay

Chain of human CD32a (FcgammaRIIa) on washed human platelets (human) (P12318 34-317 limits assumed): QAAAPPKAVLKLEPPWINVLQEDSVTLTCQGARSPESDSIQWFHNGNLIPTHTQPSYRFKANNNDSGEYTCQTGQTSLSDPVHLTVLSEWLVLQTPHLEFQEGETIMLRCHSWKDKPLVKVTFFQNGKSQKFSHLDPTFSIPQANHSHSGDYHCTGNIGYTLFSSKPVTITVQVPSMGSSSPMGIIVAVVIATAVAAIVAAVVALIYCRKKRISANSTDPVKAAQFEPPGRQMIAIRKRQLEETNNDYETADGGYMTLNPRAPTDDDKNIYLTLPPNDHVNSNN
Chain of M90 anti-CD40L mAb + CD40L immune complex (P29965 113-261, one chain of several): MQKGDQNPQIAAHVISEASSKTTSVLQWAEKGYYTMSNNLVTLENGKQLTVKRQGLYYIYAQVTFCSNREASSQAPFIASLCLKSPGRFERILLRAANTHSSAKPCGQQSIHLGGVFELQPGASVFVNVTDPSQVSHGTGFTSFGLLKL
Chain of M90 anti-CD40L mAb + M91 anti-CD40L mAb + CD40L immune complex (a polyclonal immune complex) (P29965 113-261, one chain of several): as above

## deglycosylated native mouse IV.3 IgG2b mAb (antibody)
  mAb concentration that blocked 250 nM M90+CD40L IC-induced platelet aggregation: 7 nM

## effector-deficient humanized IV.3.1 IgG1 E269R mAb (antibody)
  mAb concentration that blocked 250 nM HIT-like IC-induced platelet aggregation: 40 nM
  mAb concentration that blocked 500 nM M90+CD40L IC-induced platelet aggregation: 6 nM
  mAb concentration that blocked 1000 nM M90+M91+CD40L IC-induced platelet aggregation: 25 nM
  mAb concentration that blocked APS-like IC-induced platelet aggregation: 33 nM
  mAb concentration that did not inhibit 500 nM M90+CD40L IC-induced platelet aggregation: 2 nM
  mAb concentration that inhibited 500 nM M90+CD40L IC-induced platelet aggregation: 3 nM
  platelet activation by the combination of hIV.3.1 (25 nM), hAT-10 (90 nM) and MDE-8 (75 nM), all IgG1 E269R: 25 nM
  platelet aggregation by the combination of hAT-10 (2 nM), hIV.3.1 (150 nM) and MDE-8 (150 nM), all IgG1 E269R: 150 nM

## M90 anti-CD40L mAb + CD40L immune complex (from UniProt P29965 113-261)
  washed human platelet aggregation induced by the IC (IC concentration): 250 nM

## native chimeric IV.3 human IgG1 mAb (antibody)
  mAb concentration needed to block 500 nM M90+CD40L IC-induced platelet aggregation: < 5 nM

## M90 anti-CD40L mAb + M91 anti-CD40L mAb + CD40L immune complex (a polyclonal immune complex) (from UniProt P29965 113-261)
  washed human platelet aggregation induced by the IC (IC concentration): 1000 nM
